The source of these data is publication doi:10.1101/2024.01.23.574818.

The assay deals with RmlT, wall teichoic acid rhamnosyltransferase of Listeria monocytogenes EGDe (Listeria monocytogenes EGDe). The experiment in a line: SEC. On the technique in general: Size exclusion chromatography separates by hydrodynamic size, large species first.

As a reminder, the stoichiometry N is a count of units in the complex or per binding partner. The substance “RmlT, wall teichoic acid rhamnosyltransferase of Listeria monocytogenes EGDe (enzyme)” yielded a stoichiometry N of 2.
